Here are results for 25 molecules from patent US20030186868A1 (Regeneron, published 2003).

The target of assay [1] is T1, human vascular endothelial growth factor receptor-2 (hVEGFR-2) (human, UniProt P35968 20-1356).
T1 construct: whole, on cells; also called flk-1; FLK-1
The assay can be described thus: 125I-VEGF165 competition, whole COS-1 cells. As to the method:
(§1) Cells are plated the day before experimentation at 200,000 cells per well in twelve well tissue culture plates (VWR) in 1 ml of growth medium specific for each cell type. On the day of experimentation, the cells were pre-equilibrated at 4° C. for 30 to 60 minutes in binding buffer (0.2% BSA, Sigma; 25 mM Hepes, Gibco; MEM, Gibco). […] The binding reaction is allowed to reach equilibrium for four hours at 4° C. with gentle agitation.
(§2) Unbound ligand is then removed by quickly washing three times with 5 ml ice cold BSA-free binding buffer (MEM, Gibco, 25 mM Hepes, Gibco). Cells are lysed by the addition of 250 μl of RIPS Buffer (previously described), and the lysed cells are transferred to 12×75 mm test tubes and counted using a gamma counter. Generation of competition curves and IC₅₀ values are performed using the Prism software package (Graphpad Software Inc., San Diego, Calif.).

Assay [2] has as its target T2, human Neuropilin-1 (hNP-1) (human, UniProt O14786 22-923).
T2 construct: whole, on cells; also called hNeuropilin-1
Description: 125I-VEGF165 competition, whole COS-1 cells.

The target in assay [3] is T3, VEGFR-2/NP-1 co-receptor complex (cells co-expressing hVEGFR-2 and hNP-1) (human, UniProt P35968 20-1356; O14786 22-923).
T3 construct: whole, on cells; All numbers printed for cells co-expressing both receptors are put on this molecule; also called R2 + NP1 Cells; VEGFR-2/NP-1 complex
T3 sequence (P35968 20-1356, chain 1 of 2): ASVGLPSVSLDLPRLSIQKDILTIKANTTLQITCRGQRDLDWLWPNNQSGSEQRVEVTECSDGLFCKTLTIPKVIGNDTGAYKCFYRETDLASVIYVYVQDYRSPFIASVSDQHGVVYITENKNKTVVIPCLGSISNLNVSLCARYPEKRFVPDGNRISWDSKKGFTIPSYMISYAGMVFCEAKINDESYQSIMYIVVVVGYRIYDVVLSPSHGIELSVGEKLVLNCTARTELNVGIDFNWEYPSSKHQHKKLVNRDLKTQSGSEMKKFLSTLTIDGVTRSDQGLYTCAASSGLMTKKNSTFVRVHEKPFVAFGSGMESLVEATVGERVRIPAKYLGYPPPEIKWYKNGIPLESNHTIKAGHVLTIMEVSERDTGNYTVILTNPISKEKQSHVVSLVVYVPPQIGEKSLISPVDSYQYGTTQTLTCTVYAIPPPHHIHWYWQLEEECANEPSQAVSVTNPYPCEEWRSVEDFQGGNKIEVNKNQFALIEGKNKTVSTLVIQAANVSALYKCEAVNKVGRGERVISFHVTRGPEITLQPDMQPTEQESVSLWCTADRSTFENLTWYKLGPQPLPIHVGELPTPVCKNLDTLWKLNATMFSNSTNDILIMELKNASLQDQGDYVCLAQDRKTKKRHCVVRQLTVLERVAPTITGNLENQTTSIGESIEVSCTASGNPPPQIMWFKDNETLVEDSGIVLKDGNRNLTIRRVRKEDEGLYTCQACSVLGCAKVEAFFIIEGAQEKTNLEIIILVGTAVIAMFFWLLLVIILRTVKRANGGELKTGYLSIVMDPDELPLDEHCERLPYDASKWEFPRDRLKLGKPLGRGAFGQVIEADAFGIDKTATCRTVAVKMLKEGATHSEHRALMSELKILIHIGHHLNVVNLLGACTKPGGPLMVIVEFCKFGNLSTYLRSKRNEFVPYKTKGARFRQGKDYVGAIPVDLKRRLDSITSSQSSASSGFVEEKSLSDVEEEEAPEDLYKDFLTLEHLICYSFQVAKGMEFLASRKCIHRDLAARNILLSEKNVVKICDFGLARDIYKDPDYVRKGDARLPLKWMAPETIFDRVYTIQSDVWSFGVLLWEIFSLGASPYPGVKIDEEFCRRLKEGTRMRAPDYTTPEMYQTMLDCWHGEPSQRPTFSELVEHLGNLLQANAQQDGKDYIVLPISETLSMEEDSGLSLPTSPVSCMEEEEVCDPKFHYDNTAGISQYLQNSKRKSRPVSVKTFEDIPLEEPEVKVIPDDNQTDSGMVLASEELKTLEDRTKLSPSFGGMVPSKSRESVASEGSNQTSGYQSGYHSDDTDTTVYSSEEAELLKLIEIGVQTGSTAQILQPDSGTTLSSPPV
T3 sequence (O14786 22-923, chain 2 of 2): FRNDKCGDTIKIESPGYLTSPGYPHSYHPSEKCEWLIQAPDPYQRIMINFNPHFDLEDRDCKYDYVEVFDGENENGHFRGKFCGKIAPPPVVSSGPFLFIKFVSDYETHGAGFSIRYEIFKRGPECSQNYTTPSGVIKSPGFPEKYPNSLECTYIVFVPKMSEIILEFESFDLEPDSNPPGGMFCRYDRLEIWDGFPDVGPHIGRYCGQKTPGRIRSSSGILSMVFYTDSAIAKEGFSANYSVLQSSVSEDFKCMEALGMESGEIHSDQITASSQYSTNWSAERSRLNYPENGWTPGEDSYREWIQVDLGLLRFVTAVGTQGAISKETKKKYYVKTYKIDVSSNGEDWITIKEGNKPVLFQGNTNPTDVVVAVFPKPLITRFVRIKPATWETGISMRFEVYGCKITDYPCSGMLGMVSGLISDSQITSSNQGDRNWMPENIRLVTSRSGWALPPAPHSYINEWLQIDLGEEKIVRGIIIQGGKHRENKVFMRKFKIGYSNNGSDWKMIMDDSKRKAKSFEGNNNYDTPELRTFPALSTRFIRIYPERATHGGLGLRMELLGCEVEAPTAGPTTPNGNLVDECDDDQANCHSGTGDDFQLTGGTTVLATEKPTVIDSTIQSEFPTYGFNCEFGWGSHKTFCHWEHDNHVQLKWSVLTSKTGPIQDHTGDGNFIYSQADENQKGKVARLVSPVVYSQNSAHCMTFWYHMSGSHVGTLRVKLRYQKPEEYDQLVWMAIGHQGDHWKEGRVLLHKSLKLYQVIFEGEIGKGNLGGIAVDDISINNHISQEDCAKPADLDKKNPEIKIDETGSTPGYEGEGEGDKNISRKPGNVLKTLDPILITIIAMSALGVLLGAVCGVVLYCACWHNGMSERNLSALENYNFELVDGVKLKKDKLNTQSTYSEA
The assay can be described thus: 125I-VEGF165 competition, whole COS-1 cells.

The target in assay [4] is human vascular endothelial growth factor receptor-2 (hVEGFR-2) (human) (UniProt P35968). Description: 125I-VEGF165 competition, whole COS-1 cells.
human vascular endothelial growth factor receptor-2 (hVEGFR-2) (human), sequence (P35968 20-1356): as the sequence (P35968 20-1356, chain 1 of 2) above
Assay [5] has as its target human Neuropilin-1 (hNP-1) (human) (UniProt O14786). The assay can be described thus: 125I-VEGF165 competition, whole COS-1 cells.
For assay [6], the target named is VEGFR-2/NP-1 co-receptor complex (cells co-expressing hVEGFR-2 and hNP-1) (human) (UniProt P35968). Description: 125I-VEGF165 competition, whole COS-1 cells.
VEGFR-2/NP-1 co-receptor complex (cells co-expressing hVEGFR-2 and hNP-1) (human), sequence (P35968 20-1356, chain 1 of 2): as above
VEGFR-2/NP-1 co-receptor complex (cells co-expressing hVEGFR-2 and hNP-1) (human), sequence (O14786 22-923, chain 2 of 2, further chain): as the sequence (O14786 22-923, chain 2 of 2) above
The target of assay [7] is T2, human Neuropilin-1 (hNP-1). The assay can be described thus: 125I-VEGF165 competition, whole COS-1 cells. As to the method: as §1, §2
This is another data set of the same source.

Assay [8] has as its target T2, human Neuropilin-1 (hNP-1). The assay can be described thus: 125I-VEGF165 competition, stable Balb/C 3T3 A31 cells.
The target of assay [9] is VEGFR-2/NP-1 co-receptor complex (cells co-expressing hVEGFR-2 and hNP-1) (human) (UniProt P35968). The assay can be described thus: 125I-VEGF165 competition, whole COS-1 cells. The source holds these as a separate data set.
Assay [10] addresses T3, VEGFR-2/NP-1 co-receptor complex (cells …). The assay can be described thus: 125I-VEGF165 (201 pM) competition, cells overexpressing VEGFR-2 and NP-1 (FIG. 7). How it is done: as §1, §2
Assay [11] concerns the target T2, human Neuropilin-1 (hNP-1). The assay can be described thus: saturation binding of 125I-VEGF165, whole COS-1 cells (transient). As to the method:
as §1, §2

In assay [12] the target is T2, human Neuropilin-1 (hNP-1). The assay can be described thus: 125I-VEGF165 competition by cold VEGF165, whole COS-1 cells. How it is done:
as §1, §2

Like-named read-outs stand apart in the source and are kept apart here. Bridge positions count the residues as written; N and C are the ends. Ends that are not written are not given here.

T1 sequence (P35968 20-1356): as the sequence (P35968 20-1356, chain 1 of 2) above
T2 sequence (O14786 22-923): as the sequence (O14786 22-923, chain 2 of 2) above
human Neuropilin-1 (hNP-1) (human), sequence (O14786 22-923): as the sequence (O14786 22-923, chain 2 of 2) above

As to AGRGARAAEKQAPSDKPRR [P6V8-3NCSA1, 5, 7, 8, 12], the binding result in [1] is reported as “no binding”.
On to CAGRGKRCREKQRPSDKPRR (disulfide 1-8, also called P6V8-3NCSA-1 7CCA1) [P6V8-3NCS1-7CCA1], for which, in assay [1], the binding result is reported as “no binding”.
For the molecule CKGRGKRCREKQRPSDKPRR (disulfide 1-8; also: capped amino and carboxyl termini, caps not given here) [(cap)P6V8-3NCS1-7CC], the binding result in assay [2], in assay [3] and in [1] was “no binding” each time.
For the molecule CAGRGARCREKQRPSDKPRR (disulfide 1-8) [P6V8-3NCS1-7CCA1A5], the binding result in assay [1] was “no binding”.
For the molecule CKGRGARCREKQRPSDKPRR (disulfide 1-8) [P6V8-3NCS1-7CCA5], the binding result in assay [1] is recorded as “no binding”.
The molecule AGRGARAAEAQRPSDKPRR [P6V8-3NCSA1, 5, 7, 8, 10] showed a relative affinity (IC50 peptide / IC50 VEGF165) in assay [4] of 212000. This molecule yielded a relative affinity to lead peptide (IC50 peptide / IC50 P6V8-3NCS) in assay [5] of 67.8.
As for KGRGKRAAEKQAPSDKPRR [P6V8-3NCSA7, 8, 12], the relative affinity (IC50 peptide / IC50 VEGF165) in [4] was 6000; in assay [6] it was 36600.
Regarding KGRGKRAAEAQRPSDKPRR [P6V8-3NCSA7, 8, 10], the relative affinity (IC50 peptide / IC50 VEGF165) in assay [4] worked out at 110000.
Consider RRPKGRGKRRREKQRAAAKPRR [AS-4a], for which, in [4], the relative affinity to lead peptide (IC50 peptide / IC50 P6V8CS) was found to be 1.9.
Regarding RPCDKPRR [V8], the binding result in [1] and in assay [7] was “no binding” each time.
Regarding RPSDKPRR [V8CS], the binding result in [1] was “no binding”.
Turning to KGRGKRRREKQRPCDKPRR [P6V8-3N], the IC50 (in general, the concentration that gives 50% inhibition) in [8] turned out to be 254 nM.
Turning to AGRGARRREKQRPSDKPRR [P6V8-3NCSA1A5], the binding result in [1] is “no binding”.
On the same count and under the same terms, with AGRGKARREKQRPSDKPRR [P6V8-3NCSA1A6] the entry was “no binding”.
On the same count and under the same terms, with KGAGARRREKQRPSDKPRR [P6V8-3NCSA3A5] the entry was “no binding”; with KGAGKARREKQRPSDKPRR [P6V8-3NCSA3A6], “no binding”.
KGRGKRAAEAQAPSDKPRR [P6V8-3NCSA7, 8, 10, 12]: in [1], the binding result is “no binding”.
In the case of KGRGKRRRECQRPSCKPRR (disulfide 10-15) [P6V8-3NCSC13C18], the values for the binding result in [2], in assay [3] and in [1] were “binds”, “binds” and “no binding”, respectively.
Consider CKGRGKRCREKQRPSDKPRR (disulfide 1-8, also called P6V8-3NCW1-7CC) [P6V8-3NCS1-7CC], for which the binding result in assay [1] is “no binding”.

B1: (cap)P6V8-3NCS (peptide)
peptide: KGRGKRRREKQRPSDKPRR
modifications: not fully specified (N-terminus, C-terminus); also: amino and carboxyl termini capped, caps not given here
In assay [9], B1 registered a relative affinity (IC50 peptide / IC50 VEGF165) of 96200. Besides, the binding result in assay [1] is on record as “no binding”.
Consider RRPAAAGKRRREKQRPSDKPRR [AS-1], for which the binding result in [1] is given as “no binding”.
Consider RRPKGRGKRRREKQRP (also called P6 peptide; pp6) [P6], for which the IC50 in assay [10] was 12200 nM.

B2: P6V8 (peptide)
peptide: RRPKGRGKRRREKQRPCDKPRR
notes: synthetic; holds one free cysteine; also called P6V8 parent peptide
Consider B2, for which, in [2], the binding result is “binds”.

B3: human recombinant VEGF165 (ligand, UniProt P15692-4 27-191, looked up)
chain: APMAEGGGQNHHEVVKFMDVYQRSYCHPIETLVDIFQEYPDEIEYIFKPSCVPLMRCGGCCNDEGLECVPTEESNITMQIMRIKPHQGQHIGEMSFLQHNKCECRPKKDRARQENPCGPCSERRKHLFVQDPQTCKCSCKNTDSRCKARQLELNERTCRCDKPRR
modifications: 125I-labelled (chloramine T) where used as tracer
Turning to B3, in [11], the affinity, expressed as Kd, was 2.09 nM and the “Log Kd” value was -8.68. In addition, in assay [12], the IC50 was found to be 0.582 nM and the “log IC50” value is -9.24.
In turn, RRPKGRGKRRREKQRPDAVPRR (also called P6P7 peptide) [P6P7] returned an IC50 in [10] of 1170 nM.
